Read-outs that look alike come from different tables or passages of the source.

For orientation: Kd means the free concentration of one partner at which half of the binding sites on the other are occupied at equilibrium, for simple one-to-one binding. What is called koff is a measure of how fast the partners let go of each other. For orientation: kon means a measure of how fast the partners come together. As a reminder, the IC50 is the concentration that gives 50% inhibition. Read a high IC50 as a need for much substance.

The target of assay [1] is huCD47-D1-his (recombinant human CD47 extracellular region D1 with C-terminal His tag) (human (homo sapiens)) (UniProt Q08722). The experiment in a line: SPR BIAcore, against hS2C3 as reference. Background: Surface plasmon resonance follows binding to a sensor surface in real time, without labels.
Assay [2] concerns the target hCD47 mutant E35A (human (homo sapiens)) (UniProt Q08722). The experiment in a line: SPR BIAcore, against natural hCD47 as reference.
In assay [3] the target is hCD47 mutant Q1A (human (homo sapiens)) (UniProt Q08722). The experiment in a line: SPR BIAcore, against natural hCD47 as reference.
Assay [4] deals with huCD47-D1-his (recombinant human CD47 extracellular region D1 with C-terminal His tag) (human (homo sapiens)) (UniProt Q08722). The experiment in a line: SPR BIAcore, by the method of Example 3 (antibody captured, huCD47-D1-his analyte).
In assay [5] the target is hCD47-mFc (human CD47 extracellular region D1 fused to mouse IgG2a Fc) (human (homo sapiens)). The experiment in a line: competition ELISA by the method of Example 3 (hCD47-mFc coated, hCD172a-D1M1-His as competitor). On the technique in general: ELISA stands for enzyme-linked immunosorbent assay.
The target is the same in assay [6]. Described as above. This is another data set of the same source.

B1: H10C7+L26A6 (affinity-matured variant of hS2C3) (antibody, part only; not given: constant regions, V domains shown, part only)
VH: QVQLVQSGAEVKKPGASVKVSCKASGYTFTDYYMHWVRQAPGQRLEWMGWIYPGSGNTRYSQKFKDRVTMTRDTSTSTVYMELSSLRSEDTAVYYCARREEDYFDYWGQGTLVTVSS
B1: the fold improvement of affinity over hS2C3 in assay [1] is 5 fold. This molecule had a fold increase of affinity against natural hCD47 in assay [2] of 4 fold. Moreover, in assay [3], the fold decrease of affinity against natural hCD47 is 100 fold. Besides, in assay [4], the Kd was determined as 2.32 nM, the koff was determined as 0.00193 s⁻¹ and the kon was found to be 833000 M⁻¹ s⁻¹. In assay [5], this molecule yielded an IC50 of 4.25 nM. The molecule also showed an IC50 in assay [6] of less than 5 nM.

B2: H11E5+L26A6 (affinity-matured variant of hS2C3) (antibody, part only; not given: constant regions, V domains shown, part only)
VH: QVQLVQSGAEVKKPGASVKVSCKASGYTFTDYYMHWVRQAPGQRLEWMGWIYPSSGNTKYAQKFKDRVTMTRDTSTSTVYMELSSLRSEDTAVYYCARREEDYFDYWGQGTLVTVSS
B2: in assay [4], the Kd stood at 1.83 nM, the koff came out at 0.0017 s⁻¹ and the kon is 930000 M⁻¹ s⁻¹. The same molecule registered an IC50 in assay [5] of 3.52 nM. The IC50 in assay [6] is less than 5 nM.
